# ± gives the standard deviation of the averaged measurements.
# System: ATP
# Assay: switch fluorescence ratio, 500 uM ATP over buffer (Cy3 cluster intensity, sum of 5 cycles each) (fold (ratio)); higher = stronger signal-on switching upon ATP binding; sequences stand for … in TCGTCGGCAGCGTCAGATGTGTATAAGAGACAGTTTTTTTTTTTTTTTTTTTTTTTTT…TC
# Conditions: aptamer strand: ATP DNA aptamer (quencher-CACCTGGGGGAGTATTGCGGAGGAAGG + anchor), 100 nM annealed; ATP concentration: 500 uM
# Procedure, shortened: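 The quencher-labelled ATP aptamer, at 100 nM, was annealed to Cy3-labelled switching-strand clusters on a modified Illumina MiSeq flow-cell. The clusters were imaged in selection buffer, then after 15 min with 500 uM ATP at 22 °C, and this buffer/ATP cycle ran five times with NaOH stripping and re-annealing between runs. Per-cluster fluorescence ratios, summed target-cycle over summed buffer-cycle Cy3 intensity, were averaged per switch-domain sequence. Clusters outside 100-1000 RFU were excluded.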
# 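Also: ATP exposure 15 min at 22 °C before imaging.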
row,Sequence,switch fluorescence ratio
1,GCTTTTGGCC,0.971 ± 0.02
2,GGAAAAAGGG,1 ± 0.02
3,GGAAAAGAGC,0.991 ± 0.049
4,GGAAAAGGCT,1.02 ± 0.07
5,GGAAAAGGGA,1.01 ± 0.049
6,GGAAAAGGTT,0.9955 ± 0.0073
7,GGAAACACAG,1.02 ± 0.035
8,GGAAACAGGA,1.02 ± 0.05
9,GGAAACCCGC,1.14 ± 0.071
10,GGAAACGCGA,1.54 ± 0.093
11,GGAAACTGGT,1.05 ± 0.069
12,GGAAAGTAAA,0.982 ± 0.014
13,GGAAAGTCAG,0.992 ± 0.027
14,GGAAATACGA,1.27 ± 0.036
15,GGAAATCAGG,0.989 ± 0.012
16,GGAAATGGCG,0.981 ± 0.1
17,GGAAATTTGG,0.993 ± 0.037
18,GGAAATTTGT,1.008 ± 0.0044
19,GGAACACTGT,0.9955 ± 0.0077
20,GGAACAGAGG,0.9769 ± 0.007
21,GGAACATATA,1.01 ± 0.0064
22,GGAACCTTGG,1.023 ± 0.0094
23,GGAACCTTTT,1.04 ± 0.041
24,GGAACTCGCT,1.02 ± 0.11
25,GGAACTGGAG,1.07 ± 0.031

row,Sequence,switch fluorescence ratio
1,GGAAGAATAG,1.02 ± 0.038
2,GGAAGGAATG,0.966 ± 0.0076
3,GGAAGGCGGC,1.08 ± 0.071
4,GGAAGGGGGA,1.07 ± 0.096
5,GGAAGGGTCG,1.04 ± 0.022
6,GGAAGGGTTT,1.03 ± 0.061
7,GGAAGTAGCC,0.959 ± 0.038
8,GGAAGTGGGA,1.018 ± 0.0069
9,GGAAGTTCTA,0.984 ± 0.016
10,GGAAGTTTAA,1 ± 0.02
11,GGAATAAGGT,1.01 ± 0.031
12,GGAATAGAAA,0.994 ± 0.033
13,GGAATAGATG,1.026 ± 0.0015
14,GGAATAGGGT,0.98 ± 0.052
15,GGAATCCGGG,0.987 ± 0.037
16,GGAATCCTTG,1 ± 0.0087
17,GGAATCGGGC,0.9487 ± 0.0014
18,GGAATCGGTG,0.996 ± 0.04
19,GGAATGAAG,1.012 ± 0.01
20,GGAATGACGA,0.989 ± 0.048
21,GGAATGAGTA,0.997 ± 0.016
22,GGAATGCGGG,0.9701 ± 0.0077
23,GGAATGGGGA,1 ± 0.037
24,GGAATGGTAG,1.01 ± 0.099
25,GGAATGTCGG,0.962 ± 0.051

row,Sequence,switch fluorescence ratio
1,GGAATTGATG,1.04 ± 0.046
2,GGAATTGCA,0.958 ± 0.022
3,GGAATTGTCC,1.44 ± 0.69
4,GGAATTTGTT,1 ± 0.021
5,GGACAAAACT,1.08 ± 0.12
6,GGACAAGGGG,0.962 ± 0.038
7,GGACACATGC,1.1 ± 0.14
8,GGACATGTAG,0.965 ± 0.024
9,GGACCAAAAG,1.002 ± 0.0067
10,GGACCAGGGT,1.04 ± 0.0071
11,GGACCATATC,1.07 ± 0.017
12,GGACCGCATT,2.5 ± 0.22
13,GGACCGGTGA,1.01 ± 0.042
14,GGACCTGGTT,0.986 ± 0.013
15,GGACGCGTGG,1.01 ± 0.018
16,GGACGGAAGA,1.101 ± 0.01
17,GGACGGCCGC,1.06 ± 0.037
18,GGACGGTATT,1.08 ± 0.051
19,GGACGTTTTT,1.01 ± 0.015
20,GGACTACCGC,1.14 ± 0.019
21,GGACTCAGGG,1.03 ± 0.051
22,GGACTCTCGG,0.967 ± 0.024
23,GGACTTATTT,0.986 ± 0.014
24,GGACTTGTGA,0.997 ± 0.018
25,GGAGAAAGCG,0.976 ± 0.016

row,Sequence,switch fluorescence ratio
1,GGAGAATATG,1.038 ± 0.0095
2,GGAGACAGGA,1.04 ± 0.012
3,GGAGAGAAAG,0.9866 ± 0.0024
4,GGAGAGAGGG,1.02 ± 0.044
5,GGAGAGCATT,1.039 ± 0.0091
6,GGAGAGCGGT,1.02 ± 0.011
7,GGAGAGGCGT,1 ± 0.013
8,GGAGATAGTT,0.9806 ± 0.0057
9,GGAGATTGTG,0.9766 ± 0.0043
10,GGAGCAAGGG,3.37 ± 1.5
11,GGAGCAGGCG,1.04 ± 0.04
12,GGAGCTAGGG,1.056 ± 0.0058
13,GGAGGAAGGC,1.75 ± 0.58
14,GGAGGAAGGG,0.983 ± 0.025
15,GGAGGAGATA,0.995 ± 0.02
16,GGAGGAGTGT,0.959 ± 0.037
17,GGAGGATGAG,1.01 ± 0.013
18,GGAGGATGGG,1 ± 0.014
19,GGAGGCGGTG,1.048 ± 0.0039
20,GGAGGCTAGC,1.01 ± 0.054
21,GGAGGGATAA,1.1 ± 0.054
22,GGAGGGCTCG,0.981 ± 0.043
23,GGAGGGGATG,0.981 ± 0.011
24,GGAGGGTGAG,0.984 ± 0.014
25,GGAGGGTTAT,0.995 ± 0.038

# — the supplement of paper PMC10126150
